Values of other authors, collected in US20040241754A1, “Modulating neuronal plasticity” (The Salk Institute for Biological Studies, priority 2003, published 2004).

How the values were obtained:
EphA2 = EphA2 (Homo sapiens, UniProt P29317); conditions: read-out: Kd for binding to EphA2; cited from earlier work
EphB4 = biological target: T1, EphB4 (Homo sapiens, UniProt P54760); conditions: read-out: Kd for binding to EphB4; cited from earlier work
T1 sequence (P54760 16-987): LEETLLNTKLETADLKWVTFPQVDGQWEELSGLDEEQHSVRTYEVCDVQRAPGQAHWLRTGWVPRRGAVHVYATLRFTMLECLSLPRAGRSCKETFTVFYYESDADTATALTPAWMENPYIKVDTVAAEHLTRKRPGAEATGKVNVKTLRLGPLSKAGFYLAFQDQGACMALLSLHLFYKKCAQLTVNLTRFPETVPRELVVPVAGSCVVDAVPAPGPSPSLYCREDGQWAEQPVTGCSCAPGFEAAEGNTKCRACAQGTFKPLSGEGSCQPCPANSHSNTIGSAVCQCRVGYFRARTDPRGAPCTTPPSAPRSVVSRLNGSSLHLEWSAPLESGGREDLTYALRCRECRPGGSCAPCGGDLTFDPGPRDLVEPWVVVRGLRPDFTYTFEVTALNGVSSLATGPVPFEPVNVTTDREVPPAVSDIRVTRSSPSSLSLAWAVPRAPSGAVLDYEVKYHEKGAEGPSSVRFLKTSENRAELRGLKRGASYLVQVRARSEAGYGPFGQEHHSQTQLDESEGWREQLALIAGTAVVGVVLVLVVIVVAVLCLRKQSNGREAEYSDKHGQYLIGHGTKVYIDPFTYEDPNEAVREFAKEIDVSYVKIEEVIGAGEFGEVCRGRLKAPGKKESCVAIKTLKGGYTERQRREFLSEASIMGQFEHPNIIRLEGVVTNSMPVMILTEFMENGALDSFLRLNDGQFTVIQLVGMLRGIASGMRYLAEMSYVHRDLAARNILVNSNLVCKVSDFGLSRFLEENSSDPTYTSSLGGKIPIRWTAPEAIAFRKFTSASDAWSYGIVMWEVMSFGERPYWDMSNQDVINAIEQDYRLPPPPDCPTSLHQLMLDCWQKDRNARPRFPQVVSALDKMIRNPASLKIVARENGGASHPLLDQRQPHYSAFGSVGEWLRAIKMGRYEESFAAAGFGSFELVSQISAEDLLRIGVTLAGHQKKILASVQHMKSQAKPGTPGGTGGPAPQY

Sequence of EphA2 (P29317 24-976): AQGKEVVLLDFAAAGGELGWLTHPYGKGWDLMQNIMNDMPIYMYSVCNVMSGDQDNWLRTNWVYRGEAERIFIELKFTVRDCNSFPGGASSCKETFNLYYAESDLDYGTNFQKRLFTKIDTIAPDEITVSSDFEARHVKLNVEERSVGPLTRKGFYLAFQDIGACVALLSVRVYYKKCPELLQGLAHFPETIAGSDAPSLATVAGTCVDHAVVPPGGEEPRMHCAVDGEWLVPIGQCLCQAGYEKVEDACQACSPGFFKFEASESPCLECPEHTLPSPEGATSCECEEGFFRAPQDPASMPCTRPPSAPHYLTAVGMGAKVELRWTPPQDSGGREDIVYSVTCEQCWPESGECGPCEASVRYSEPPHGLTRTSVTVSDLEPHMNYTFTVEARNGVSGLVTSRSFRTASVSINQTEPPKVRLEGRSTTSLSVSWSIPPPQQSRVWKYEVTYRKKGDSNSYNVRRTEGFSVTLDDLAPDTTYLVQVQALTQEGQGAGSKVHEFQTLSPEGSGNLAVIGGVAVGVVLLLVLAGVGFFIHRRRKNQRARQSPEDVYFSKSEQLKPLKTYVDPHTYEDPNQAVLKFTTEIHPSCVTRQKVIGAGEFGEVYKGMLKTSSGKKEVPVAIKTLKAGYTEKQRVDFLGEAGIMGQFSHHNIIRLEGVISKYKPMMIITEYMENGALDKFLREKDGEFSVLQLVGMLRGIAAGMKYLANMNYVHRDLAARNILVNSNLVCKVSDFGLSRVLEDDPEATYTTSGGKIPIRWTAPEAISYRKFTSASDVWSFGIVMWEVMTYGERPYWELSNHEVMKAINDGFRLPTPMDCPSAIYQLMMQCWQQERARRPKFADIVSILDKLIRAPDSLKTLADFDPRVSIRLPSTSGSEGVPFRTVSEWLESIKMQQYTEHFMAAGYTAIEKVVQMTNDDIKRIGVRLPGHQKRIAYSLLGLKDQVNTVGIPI

Row | Molecule | Kd (EphA2) [nM] | Kd (EphB4) [nM]
1 | ephrin-A1: a 25 kDa, 205 amino acid glycoprotein; ephrin ligand (protein, UniProt P20827 1-205, looked up, full-length, a 25 kDa, 205 amino acid glycoprotein; ephrin ligand) MEFLWAPLLGLCCSLAAADRHTVFWNSSNPKFRNEDYTIHVQLNDYVDIICPHYEDHSVADAAMEQYILYLVEHEEYQLCQPQSKDQVRWQCNRPSAKHGPEKLSEKFQRFTPFTLGKEFKEGHSYYYISKPIHQHEDRCLRLKVTVSGKITHSPQAHDNPQEKRLAADDPEVRVLHSIGHSAAPRLFPLAWTVLLLPLLLLQTP | 25 | –
2 | ephrin-B2: a 38-42 kDa, 333 amino acid glycoprotein; ephrin ligand (protein, UniProt P52799 1-333, looked up, full-length, a 38-42 kDa, 333 amino acid glycoprotein; ephrin ligand) MAVRRDSVWKYCWGVLMVLCRTAISKSIVLEPIYWNSSNSKFLPGQGLVLYPQIGDKLDIICPKVDSKTVGQYEYYKVYMVDKDQADRCTIKKENTPLLNCAKPDQDIKFTIKFQEFSPNLWGLEFQKNKDYYIISTSNGSLEGLDNQEGGVCQTRAMKILMKVGQDASSAGSTRNKDPTRRPELEAGTNGRSSTTSPFVKPNPGSSTDGNSAGHSGNNILGSEVALFAGIASGCIIFIVIIITLVVLLLKYRRRHRKHSPQHTTTLSLSTLATPKRSGNNNGSEPSDIIIPLRTADSVFCPHYEKVSGDYGHPVYIVQEMPPQSPANIYYKV | – | 0.535
